Patent publication EP3088890B1 (Chugai Seiyaku Kabushiki Kaisha, dated 2020)

Key:
[1] = biological target: T1, AW5, C-terminally His-tagged recombinant product of positions 1 to 357 of GPC3 (human, UniProt P51654 25-357); test: Western blot analysis, CHO cell pellets
T1 construct: Expressed in CHO cells, cell pellets used in Western blot; The range is as printed and starts at position 1; also called AW5 (1-357); not shown: C-terminal His tag

[2] = biological target: GPC3 core (sGPC3-His) protein (human) (UniProt P51654); test: competition ELISA on plate-bound sGPC3; unlabeled GT30 (100-fold) against competitor biotin-labeled GT165
[3] = biological target: GPC3 core (sGPC3-His) protein (human) (UniProt P51654); test: competition ELISA on plate-bound sGPC3; unlabeled GT30 (100-fold) against competitor biotin-labeled GT607
[4] = biological target: T2, GPC3 peptide 321-350 (SEQ ID NO: 17) (human); test: peptide ELISA, peptide on plate, antibody at 2 µg/mL
T2 construct: Synthetic 30-residue peptide of GPC3
T2 peptide: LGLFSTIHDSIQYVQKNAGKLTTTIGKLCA

[5] = biological target: GPC3 core (sGPC3-His) protein (human) (UniProt P51654); test: competition ELISA on plate-bound sGPC3; unlabeled GT30 (100-fold) against competitor biotin-labeled GT30; signal of the labeled antibody
[6] = biological target: GPC3 core (sGPC3-His) protein (human) (UniProt P51654); test: competition ELISA on plate-bound sGPC3; unlabeled GT30 (100-fold) against competitor biotin-labeled GT165; signal of the labeled antibody
[7] = biological target: GPC3 core (sGPC3-His) protein (human) (UniProt P51654); test: ELISA on plate-bound sGPC3; biotin-labeled GT30, no unlabeled antibody
[8] = biological target: GPC3 core (sGPC3-His) protein (human) (UniProt P51654); test: competition ELISA on plate-bound sGPC3; unlabeled GT30 (100-fold) inhibits competitor biotin-labeled GT30
[9] = biological target: GPC3 core (sGPC3-His) protein (human) (UniProt P51654); test: competition ELISA on plate-bound sGPC3; unlabeled GT30 (100-fold) against competitor biotin-labeled GT114; signal of the labeled antibody
[10] = biological target: GPC3 core (sGPC3-His) protein (human) (UniProt P51654); test: competition ELISA on plate-bound sGPC3; unlabeled GT30 (100-fold) against competitor biotin-labeled GT607; signal of the labeled antibody
[11] = biological target: GPC3 core (sGPC3-His) protein (human) (UniProt P51654); test: competition ELISA on plate-bound sGPC3; unlabeled GT30 (100-fold) against competitor biotin-labeled GT114
[12] = biological target: T3, AW2, C-terminally His-tagged recombinant product of positions 1 to 196 of GPC3 (human, UniProt P51654 25-196); test: Western blot, pellets of CHO cells expressing the product
T3 construct: Expressed in CHO cells, cell pellets used in Western blot; The range is as printed and starts at position 1; also called AW2 (1-196); not shown: C-terminal His tag

[13] = biological target: T4, AW3, C-terminally His-tagged recombinant product of positions 1 to 218 of GPC3 (human, UniProt P51654 25-218); test: as above
T4 construct: Expressed in CHO cells, cell pellets used in Western blot; The range is as printed and starts at position 1; not shown: C-terminal His tag
T4 sequence (P51654 25-218): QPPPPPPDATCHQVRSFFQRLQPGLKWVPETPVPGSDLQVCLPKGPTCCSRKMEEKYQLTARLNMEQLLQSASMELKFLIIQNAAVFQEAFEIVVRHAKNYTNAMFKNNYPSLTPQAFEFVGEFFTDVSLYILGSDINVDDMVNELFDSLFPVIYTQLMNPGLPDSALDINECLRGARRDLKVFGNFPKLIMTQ

Chain of GPC3 core (sGPC3-His) protein (human) (P51654 25-563 S495A/S509A): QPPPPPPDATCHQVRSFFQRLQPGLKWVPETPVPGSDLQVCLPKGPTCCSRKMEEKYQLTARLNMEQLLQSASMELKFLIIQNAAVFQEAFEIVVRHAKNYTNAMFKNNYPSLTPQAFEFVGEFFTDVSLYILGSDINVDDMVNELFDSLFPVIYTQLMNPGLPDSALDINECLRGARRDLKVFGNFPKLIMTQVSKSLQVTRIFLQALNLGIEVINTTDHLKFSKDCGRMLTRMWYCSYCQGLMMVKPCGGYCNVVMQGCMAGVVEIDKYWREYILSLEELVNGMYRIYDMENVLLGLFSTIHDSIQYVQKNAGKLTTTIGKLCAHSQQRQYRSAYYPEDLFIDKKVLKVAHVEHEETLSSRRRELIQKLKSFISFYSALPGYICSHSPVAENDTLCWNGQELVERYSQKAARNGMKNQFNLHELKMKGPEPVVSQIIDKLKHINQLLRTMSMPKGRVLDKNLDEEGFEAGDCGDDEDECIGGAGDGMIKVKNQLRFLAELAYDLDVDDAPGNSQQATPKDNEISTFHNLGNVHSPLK
T3 sequence (P51654 25-196): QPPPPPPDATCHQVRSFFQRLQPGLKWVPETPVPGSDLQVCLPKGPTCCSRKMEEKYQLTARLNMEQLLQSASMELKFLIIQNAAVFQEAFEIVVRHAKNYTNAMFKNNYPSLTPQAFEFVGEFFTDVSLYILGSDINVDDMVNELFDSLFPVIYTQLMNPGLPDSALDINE
T1 sequence (P51654 25-357): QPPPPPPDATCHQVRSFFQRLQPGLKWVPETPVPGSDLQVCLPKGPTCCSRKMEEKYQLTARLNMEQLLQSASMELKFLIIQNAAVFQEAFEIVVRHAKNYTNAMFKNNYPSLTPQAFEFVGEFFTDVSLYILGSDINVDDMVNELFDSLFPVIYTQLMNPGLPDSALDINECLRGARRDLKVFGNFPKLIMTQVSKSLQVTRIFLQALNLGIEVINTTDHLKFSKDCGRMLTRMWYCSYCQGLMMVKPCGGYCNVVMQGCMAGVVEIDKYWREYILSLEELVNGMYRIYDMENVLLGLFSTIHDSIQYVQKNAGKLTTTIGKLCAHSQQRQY

binding result [1]: binds
Inhibitory effect (%) [2]: 94%
Inhibitory effect (%) [3]: 3%
binding result [4]: binds
O.D. 450 [5]: 0.07 O.D. 450
O.D. 450 [6]: 0.098 O.D. 450
O.D. 450 [7]: 1.84 O.D. 450
Inhibitory effect (%) [8]: 96%
O.D. 450 [9]: 2.31 O.D. 450
O.D. 450 [10]: 2.12 O.D. 450
Inhibitory effect (%) [11]: < 0%
binding result [12]: no binding
binding result [13]: no binding
B1: GT30 antibody (antibody, IgG1, V domains shown)
VH: QVQLQQSGAELARPGASVKLSCRASGYTFTSYGISWMMQRTGQGLEWIGEIYPRSGITYYNEKFKGKATLTADKSSSTAYMQLSSLTSEDSAVYFCARDVSDGYLFPYWGQGTLVTVSA
VL: DIQMTQSPASLSASVGETVTITCRTSENIYSYLAWYQQKQGKSPQLLVYNAKTLPEGVPSRFSGSGSGTQFSLKINSLQPEDFGSYYCQHHYGTPPTFGGGTKLEIKR
